Laboratory results published in patent US7718385B2, “Bioactivation of alkylating agents for cancer treatment” (priority 2003, dated 2010).

Substrate: CC1=C(CO)C2=C(C)C3(CC3)[C@@](C)(O)C(=O)C2=C1
Assay: purified protein, by the assay type
Settings: other: formation of Product 8; 37.0 °C

B1: recombinant rat AOR (Rattus norvegicus; Q160G/Q263G/Q264G/Q276G) (protein)
chain: MVQAKTWTLKKHFEGFPTDSNFELRTTELPPLNNGEVLLEALFLSVDPYMRVAAKKLKEGDSMMGEQVARVVESKNSAFPTGTIVVALLGWTSHSISDGNGLRKLPAEWPDKLPLSLALGTVGMPGLTAYFGLLDICGLKGGETVLVNAAAGAVGSVVGGIAKLKGCKVVGTAGSDEKVAYLKKLGFDVAFNYKTVKSLEEALRTASPDGYDCYFDNVGGEFSNTVILQMKTFGRIAICGAISQYNRTGPCPPGPSPEVIIYGGLRMEGFIVTRWGGEVRQKALTDLMNWVSEGKIRYHEYITEGFEKMPAAFMGMLKGDNLGKTIVKA
  Km: 145 µM
  Vmax: 0.275 µmol/min/mg
